# Measured values: patent US20120108492A1, “LIGAND-SPECIFIC NON-ANTIBODY COMPOUNDS THAT INHIBIT CR2 ACTIVATION AND METHODS OF USE THEREOF” (The Regents of the University of Colorado, priority 2008, published 2012)
# T1: wild-type MBP-CR2 SCR1-2 (human), P20023
# T1 chain: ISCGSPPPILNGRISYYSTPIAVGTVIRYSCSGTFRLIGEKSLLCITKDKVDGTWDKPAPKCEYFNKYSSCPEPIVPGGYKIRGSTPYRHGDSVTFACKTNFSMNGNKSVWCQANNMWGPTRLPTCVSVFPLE
# B1: peptide EBV gp350 cp1 (peptide)
# peptide: CSEGSLKGC
# modifications: not checked
# B2: peptide C3dp1 (peptide)
# peptide: APQHLSSQYSRT
# modifications: not checked
# B3: peptide C3dp1.1 (peptide)
# peptide: APQALSSQYSRT
# modifications: not checked
# B4: peptide C3dp1.2 (peptide)
# peptide: TRSYQSSLHQPA
# modifications: not checked
# B5: peptide C3dp1.3 (peptide)
# peptide: APQHLSSQ
# modifications: not checked
# B6: control peptide (peptide)
# peptide: APAHLSSQ
# modifications: not checked
# B7: peptide C3dp2 (peptide)
# peptide: ISTSNPRHHSTA
# modifications: not checked
# B8: peptide C3dp2.1 (peptide)
# peptide: ISTSNPRAASTA
# modifications: not checked
# B9: peptide C3dp2.2 (peptide)
# peptide: ISTSNPRH
# modifications: not checked
# B10: peptide C3dp2.3 (peptide)
# peptide: IATANPRHHSTA
# modifications: not checked
# B11: peptide C3dcp1.1 (peptide)
# peptide: DPKNHVH
# modifications: not checked
# Molecular target: T1, wild-type MBP-CR2 SCR1-2 (human), P20023
# Test: not given
row,Binder,IC50
1,B1,150 µM

# Molecular target: T1, wild-type MBP-CR2 SCR1-2 (human), P20023
# Test: competition ELISA: C3d on plate, MBP-CR2 SCR1-2 with increasing peptide, ⅓×PBS
row,Binder,IC50
1,B2,100 µM
2,B3,70 µM
3,B4,70 µM
4,B5,40 µM
5,B6,700 µM
6,B7,450 µM
7,B8,150 µM
8,B9,190 µM
9,B10,160 µM
10,B11,95 µM
